“Also recorded” adds a separate entry of the source.
Tests used:
[1] = tested on: HMC3 microglial cells; test: Inflammatory factor expression in HMC3 microglial cells induced by Aβ1-42 oligomers (western blot); format: cell-based, human; settings: for expression of TNF-α (protein) / expression of IL-6 (protein): 10 μM Aβ1-42 oligomers, 48 hours, YN-011 100 nM and 500 nM, combination 100 μM GABA and 100 nM YN-011; for expression of TNF-α (protein): GABA 10 µM and 100 μM; for expression of IL-6 (protein): GABA 100 μM; for inflammatory cytokine expression: Aβ1-42 oligomers (figure legends)
Description: Seed HMC3 human microglial cells into a 12-well plate. After overnight incubation at 37° C. with 5% CO2, treat the cells in each well with 10 μM Aβ1-42 oligomers alone or co-treated with 1, 10, or 100 μM GABA for 48 hours. Each drug treatment is performed in three replicate wells. After 48 hours of treatment, wash the cells with PBS and lyse the cells in RIPA buffer supplemented with protease inhibitor and phosphatase inhibitor on ice for 15 minutes. Centrifuge the cell lysate at 14,000 rpm for 30 minutes. Collect the supernatant, mix with 5× loading buffer supplemented with β-mercaptoethanol, and boil at 100° C. for 10 minutes. Separate denatured proteins by SDS-PAGE. Briefly, load 10 μg of protein onto precast mini polyacrylamide gels (SurePAGE, GenScript #M00657) and run at 120 V voltage. Subsequently, transfer the gel onto a PVDF membrane (0.22 μm pore size) at 200 mA for 90 minutes. After […], incubate the membrane at room temperature with primary antibodies diluted in 5% milk solution (TNF-α, Proteintech #60291-Ig; IL-6, Proteintech #21865-1-AP; HSP90, Proteintech #13171-1-AP) overnight at 4° C. After washing, incubate the membrane with corresponding secondary antibodies (Jackson Lab, 1:10000) at room temperature for 1 hour. After washing, visualize the antibody signals on the membrane using an ECL kit (Millipore #WBKLS0500) following the manufacturer's instructions. Calculate the relative protein levels normalized to the endogenous protein HSP90 using ImageJ.
(§1) Please refer to section 8.20 for the experimental procedure, but the drug treatment in this experiment is different from that in section 8.20. In this experiment, the drug treatment is as follows: treat the cells in each well with 10 μM Aβ1-42 oligomers alone or co-treated with 10, 100, or 500 nM YN-011 for 48 hours. Each drug treatment is performed in three replicate wells.
as §1, with “100 μM GABA and/or 100” for “10, 100, or 500”

[2] = tested on: db/db mice; test: Multiple subcutaneous injections in db/db mice (type 2 diabetes model); format: in vivo; settings: for rate of fasting blood glucose reduction: 54 hours (day 21) after the 7th administration; for average rate of decline in random blood glucose levels: 72 hours after the 7th administration; for average rate of fasting blood glucose reduction: average over measurement time points
Description: The impact of multiple subcutaneous injections of YN-011 on reducing blood glucose levels was evaluated in db/db mice (Jackson Laboratories, 000642). The mice were kept under normal lighting conditions (12 hours light/12 hours dark) and at room temperature, with free access to food (normal rodent chow) and water. Db/db mice lack leptin receptors and spontaneously develop obesity, hyperglycemia, and pancreatic B-cell atrophy by 4 weeks of age.
Sixty affected db/db mice (33-45g) were divided into six groups of 10 mice each (5 males and 5 females) and administered 0 (PBS buffer control), 0.15, 0.3, 0.6, or 1.2 mg/kg of YN-011, or 0.3 mg/kg of Degludec via subcutaneous injection. Another group of wild-type mice (17-22g) with the same genetic background served as the normal control. The administration frequency was once every 3 days (Q3D), with a total of 9 doses administered over a period of 26 days. […] The duration of the hypoglycemic effect ranged from 34 to 72 hours within the dose range of 0.15-1.2 mg/kg.

[3] = tested on: patients with T2DM; test: Phase IIb and III clinical trials of YN-011 in combination with metformin in T2DM; format: in vivo; settings: 3 mg YN-011 in combination with metformin, 24 weeks
Description: The Phase IIb and III clinical trials were multicenter, randomized, double-blind, placebo-controlled studies evaluating the efficacy and safety of YN-011 in patients with T2DM who had inadequate glycemic control on metformin therapy. The Phase IIb trial aimed to explore dose response and evaluate safety (divided into three groups: YN-011 1 mg+metformin, YN-011 3 mg+metformin, and placebo+metformin), to determine the Recommended Phase 3 Dose (RP3D) for the Phase III trial, which aimed at efficacy confirmation . . .
The inclusion criteria for subjects in the Phase IIb and III studies of YN-011 in combination with metformin were primarily the same as those in Implementation Example 10, except for the following point: • Diagnosed with type 2 diabetes for at least 8 weeks (WHO 2000), and met one of the following conditions: • a) Received monotherapy with metformin for >8 weeks with a dose of ≥1500 mg/day or maximum tolerated dose (<1500 mg/day but ≥1000 mg/day) (eligible subjects could directly enter the run-in period). • b) Received monotherapy with metformin for <8 weeks with a dose of ≥1500 mg/day or maximum tolerated dose (<1500 mg/day but ≥1000 mg/day) (eligible subjects needed to enter the metformin dose stabilization period). • c) Received monotherapy with metformin at a dose <1500 mg/day and had not reached the maximum tolerated dose (eligible subjects needed to enter the metformin dose titration period and dose stabilization period).
Please refer to the exclusion criteria in Implementation Example 10 for the primary exclusion criteria for subjects in the Phase IIb and III studies of YN-011 in combination with metformin.
Primary efficacy endpoints included the comparison of YN-011 in combination with metformin versus placebo in combination with metformin in terms of the change in HbA1c levels from baseline after 12 weeks (Phase IIb) or 24 weeks (Phase III) of double-blind administration in patients with T2DM who had inadequate glycemic control on metformin therapy. Please refer to Implementation Example 10 for the secondary efficacy endpoints and safety assessments.

[4] = db/db mice, after the last administration (9th dose, day 26)

## NCCCC(=O)O [GABA, γ-aminobutyric acid]
[1]
  expression of TNF-α (protein): significantly reduce
  expression of IL-6 (protein): significantly reduces
  inflammatory cytokine expression: reduction of inflammatory cytokine expression

B1: YN-011: GLP-1 fusion protein of SEQ ID NO: 7: GLP-1 (A8G, G22E, R36G), linker peptide and IgG2/Fc domain (C222S, A330S, P331S) (protein)
chain: HGEGTFTSDVSSYLEEQAAKEFIAWLVKGGGSSGAPPPSGGGGSERKSCVECPPCPAPPVAGPSVFLFPPKPKDTLMISRTPEVTCVVVDVSHEDPEVQFNWYVDGVEVHNAKTKPREEQFNSTFRVVSVLTVVHQDWLNGKEYKCKVSNKGLPSSIEKTISKTKGQPREPQVYTLPPSREEMTKNQVSLTCLVKGFYPSDIAVEWESNGQPENNYKTTPPMLDSDGSFFLYSKLTVDKSRWQQGNVFSCSVMHEALHNHYTQKSLSLSPG
[2]; db/db mice, 0.15 mg/kg Q3D sc
  rate of fasting blood glucose reduction: 46.8%
  average rate of decline in random blood glucose levels: 31.8%
  average rate of fasting blood glucose reduction: 55.0%
[2]; db/db mice, 0.3 mg/kg Q3D sc
  rate of fasting blood glucose reduction: 55.6%
  average rate of decline in random blood glucose levels: 46.2%
  average rate of fasting blood glucose reduction: 61.8%
[2]; db/db mice, 0.6 mg/kg
  serum free fatty acid levels: significantly reduced
[2]; db/db mice, 0.6 mg/kg Q3D sc
  rate of fasting blood glucose reduction: 59.5%
  average rate of decline in random blood glucose levels: 50.8%
  average rate of fasting blood glucose reduction: 63.7%
[2]; db/db mice, 1.2 mg/kg
  perirenal fat content: significantly reduced
[2]; db/db mice, 1.2 mg/kg Q3D sc
  rate of fasting blood glucose reduction: 64.7%
  average rate of decline in random blood glucose levels: 54.3%
  average rate of fasting blood glucose reduction: 66.1%
[2]; db/db mice, 1.2 mg/kg sc
  serum fructosamine levels: significant reduction
[2]; db/db mice, 0.15, 0.3, 0.6 and 1.2 mg/kg every 3 days
  time the hypoglycemic effect (fasting blood glucose) can be maintained: at least 54 hours
[2]; db/db mice, 0.15, 0.3 and 0.6 mg/kg
  scapular fat content: significantly reduced
[2]; db/db mice, 0.15-0.6 mg/kg sc
  serum fructosamine levels: decreasing trend
[2]; db/db mice, 0.3, 0.6 and 1.2 mg/kg
  subcutaneous fat content, inguinal fat content and their ratios to body weight: significantly reduced
[2]; db/db mice, 0.3, 0.6 and 1.2 mg/kg (P<0.05, P<0.01, P<0.001)
  random and fasting body weights: significant decreases
[2]; db/db mice, 3 hours after administration
  insulin secretion (serum insulin levels): significantly promoted insulin secretion
[2]; db/db mice, Q3D sc, YN-011 all dose groups (P<0.001), Degludec 0.3 mg/kg
  fasting blood glucose levels versus model control group: significant decrease; also recorded: significantly reduced fasting blood glucose levels
[2]; db/db mice, YN-011 treatment groups vs solvent control
  epididymal fat content and its ratio to body weight: significant decrease
[2]; db/db mice, after repeated administration
  time the hypoglycemic effect was sustained: 72 h
[2]; [4]
  fasting serum insulin levels: dose-dependently increased
  pancreatic-cell mass: significant increase
[2]; db/db mice, first administration, dose as low as 0.15 mg/kg
  time after administration at which therapeutic effect was observed: 3 h
[2]; db/db mice, following the first subcutaneous administration, 0.15-1.2 mg/kg
  random plasma glucose (RPG) concentration: significantly reduced
[2]; db/db mice, multiple sc injections vs solvent control
  serum triglyceride levels: significantly decreased
[2]; db/db mice, repeated administration, all dose groups and time points except 0.15 mg/kg after the 4th administration (P=0.07)
  RPG levels versus control group: significantly lower
[3]
  incidence of hypoglycemia (<3.9 mmol/L): 1.8%
  incidence of nausea: 7.0%
  reduction in FPG levels: 2.42%
  reduction in HbA1c levels: 1.8%
[1]
  expression of TNF-α (protein): significantly reduce
  expression of IL-6 (protein): significantly reduce
  inflammatory cytokine expression: reduction of inflammatory cytokine expression

From patent US20250376498A1, “FUSION PROTEINS COMPRISING AN IMPROVED GLP-1 RECEPTOR AGONIST AND USES THEREOF” (Guangzhou Innogen Pharmaceutical Group Co., Ltd., priority 2022, published 2025)
